Assay results taken from patent US20130023004A1 (WASHINGTON UNIVERSITY, published 2013).
Values belong to the molecule of their own block, whether it stands above or below them.

How the values were obtained:
plasma ADAMTS13 (human) = plasma ADAMTS13 (human) (UniProt Q76LX8); experiment: cell-based or functional assay
FRETS-rVWF71 = target: T1, FRETS-rVWF71
T1 chain: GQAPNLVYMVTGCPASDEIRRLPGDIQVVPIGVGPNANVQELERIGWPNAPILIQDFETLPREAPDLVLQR

plasma ADAMTS13 = target: T2, plasma ADAMTS13 (human, UniProt Q76LX8 75-1427); experiment: Michaelis-Menten kinetics of substrate cleavage by plasma ADAMTS13 (fluorescence)
T2 construct: Not purified; enzyme source was plasma (about 6 nM ADAMTS13 in PNP by a literature value); also called ADAMTS13 in PNP (pooled normal plasma)
T2 sequence (looked up): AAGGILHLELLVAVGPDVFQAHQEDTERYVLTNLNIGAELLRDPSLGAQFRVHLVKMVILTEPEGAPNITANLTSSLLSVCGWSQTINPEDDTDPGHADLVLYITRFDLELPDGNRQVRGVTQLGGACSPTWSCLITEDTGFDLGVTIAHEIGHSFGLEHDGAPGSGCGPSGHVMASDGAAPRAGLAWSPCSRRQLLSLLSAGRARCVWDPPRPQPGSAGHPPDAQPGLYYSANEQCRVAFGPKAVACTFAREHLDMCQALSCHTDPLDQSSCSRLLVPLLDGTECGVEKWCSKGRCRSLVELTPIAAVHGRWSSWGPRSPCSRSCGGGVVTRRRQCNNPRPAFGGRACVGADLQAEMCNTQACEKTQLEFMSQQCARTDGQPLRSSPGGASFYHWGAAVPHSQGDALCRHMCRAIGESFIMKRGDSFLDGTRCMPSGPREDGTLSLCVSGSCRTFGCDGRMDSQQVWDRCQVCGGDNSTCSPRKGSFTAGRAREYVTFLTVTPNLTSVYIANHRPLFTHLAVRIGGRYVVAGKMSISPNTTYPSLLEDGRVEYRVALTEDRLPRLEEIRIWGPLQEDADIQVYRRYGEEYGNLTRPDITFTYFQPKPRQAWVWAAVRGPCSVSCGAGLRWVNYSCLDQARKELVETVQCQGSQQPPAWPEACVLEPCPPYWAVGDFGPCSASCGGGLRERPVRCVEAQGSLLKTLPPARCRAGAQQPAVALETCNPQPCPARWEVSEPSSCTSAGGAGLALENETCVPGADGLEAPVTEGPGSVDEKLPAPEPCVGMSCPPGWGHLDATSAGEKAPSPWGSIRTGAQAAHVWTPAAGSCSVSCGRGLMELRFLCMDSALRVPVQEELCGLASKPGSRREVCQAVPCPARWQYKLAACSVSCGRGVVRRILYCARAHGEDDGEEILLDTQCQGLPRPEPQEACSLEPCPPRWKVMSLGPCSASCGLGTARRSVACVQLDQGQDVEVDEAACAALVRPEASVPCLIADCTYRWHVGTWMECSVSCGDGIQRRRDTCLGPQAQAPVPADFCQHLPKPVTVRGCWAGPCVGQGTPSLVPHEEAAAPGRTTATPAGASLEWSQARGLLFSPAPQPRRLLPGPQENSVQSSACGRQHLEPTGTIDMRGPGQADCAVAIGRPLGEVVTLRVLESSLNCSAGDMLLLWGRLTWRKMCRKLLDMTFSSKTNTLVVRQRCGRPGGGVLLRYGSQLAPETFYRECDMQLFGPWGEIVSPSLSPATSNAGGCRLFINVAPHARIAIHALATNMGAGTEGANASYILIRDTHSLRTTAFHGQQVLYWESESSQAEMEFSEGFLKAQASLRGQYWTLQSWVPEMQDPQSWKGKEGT
Method: In these experiments, FRETS-rVWF71 cleavage by plasma ADAMTS13 (50 μL) was assessed in 200 μL reactions containing 50 mM HEPES, pH 7.4, 10 mM CaCl₂, 150 mM NaCl, and 0.05% Tween-20, and varying concentrations of FRETS-rVWF71. The concentration of ADAMTS13 in PNP is ˜1.03 μg/ml (Feys, H. B., et al. J. Thromb. Haemost 4:955-62, 2006), or ˜6 nM for a molecular mass of 170 kDa. For each concentration of substrate, the relationship between product fluorescence and concentration was determined directly by cleaving FRETS-rVWF71 to completion with excess recombinant ADAMTS13 MDTCS (Feys, H. B., et al. J. Thromb. Haemost. 7:2088-95, 2009) and measuring the fluorescence. Control assays contained plasma that was completely deficient in ADAMTS13. The initial velocities (nM/min) as a function of substrate concentration were fitted to the Michealis-Menten equation by nonlinear regression analysis (Prism, GraphPad).

B1: recombinant ADAMTS13 MDTCS (protein)
chain: AAGGILHLELLVAVGPDVFQAHQEDTERYVLTNLNIGAELLRDPSLGAQFRVHLVKMVILTEPEGAPNITANLTSSLLSVCGWSQTINPEDDTDPGHADLVLYITRFDLELPDGNRQVRGVTQLGGACSPTWSCLITEDTGFDLGVTIAHEIGHSFGLEHDGAPGSGCGPSGHVMASDGAAPRAGLAWSPCSRRQLLSLLSAGRARCVWDPPRPQPGSAGHPPDAQPGLYYSANEQCRVAFGPKAVACTFAREHLDMCQALSCHTDPLDQSSCSRLLVPLLDGTECGVEKWCSKGRCRSLVELTPIAAVHGRWSSWGPRSPCSRSCGGGVVTRRRQCNNPRPAFGGRACVGADLQAEMCNTQACEKTQLEFMSQQCARTDGQPLRSSPGGASFYHWGAAVPHSQGDALCRHMCRAIGESFIMKRGDSFLDGTRCMPSGPREDGTLSLCVSGSCRTFGCDGRMDSQQVWDRCQVCGGDNSTCSPRKGSFTAGRAREYVTFLTVTPNLTSVYIANHRPLFTHLAVRIGGRYVVAGKMSISPNTTYPSLLEDGRVEYRVALTEDRLPRLEEIRIWGPLQEDADIQVYRRYGEEYGNLTRPDITFTYFQPKPRQA
- cleavage of the substrate (fluorescence) (FRETS-rVWF71): cleaving FRETS-rVWF71 to completion with excess recombinant ADAMTS13 MDTCS

B2: plasma ADAMTS13 (protein)
chain: AAGGILHLELLVAVGPDVFQAHQEDTERYVLTNLNIGAELLRDPSLGAQFRVHLVKMVILTEPEGAPNITANLTSSLLSVCGWSQTINPEDDTDPGHADLVLYITRFDLELPDGNRQVRGVTQLGGACSPTWSCLITEDTGFDLGVTIAHEIGHSFGLEHDGAPGSGCGPSGHVMASDGAAPRAGLAWSPCSRRQLLSLLSAGRARCVWDPPRPQPGSAGHPPDAQPGLYYSANEQCRVAFGPKAVACTFAREHLDMCQALSCHTDPLDQSSCSRLLVPLLDGTECGVEKWCSKGRCRSLVELTPIAAVHGRWSSWGPRSPCSRSCGGGVVTRRRQCNNPRPAFGGRACVGADLQAEMCNTQACEKTQLEFMSQQCARTDGQPLRSSPGGASFYHWGAAVPHSQGDALCRHMCRAIGESFIMKRGDSFLDGTRCMPSGPREDGTLSLCVSGSCRTFGCDGRMDSQQVWDRCQVCGGDNSTCSPRKGSFTAGRAREYVTFLTVTPNLTSVYIANHRPLFTHLAVRIGGRYVVAGKMSISPNTTYPSLLEDGRVEYRVALTEDRLPRLEEIRIWGPLQEDADIQVYRRYGEEYGNLTRPDITFTYFQPKPRQAWVWAAVRGPCSVSCGAGLRWVNYSCLDQARKELVETVQCQGSQQPPAWPEACVLEPCPPYWAVGDFGPCSASCGGGLRERPVRCVEAQGSLLKTLPPARCRAGAQQPAVALETCNPQPCPARWEVSEPSSCTSAGGAGLALENETCVPGADGLEAPVTEGPGSVDEKLPAPEPCVGMSCPPGWGHLDATSAGEKAPSPWGSIRTGAQAAHVWTPAAGSCSVSCGRGLMELRFLCMDSALRVPVQEELCGLASKPGSRREVCQAVPCPARWQYKLAACSVSCGRGVVRRILYCARAHGEDDGEEILLDTQCQGLPRPEPQEACSLEPCPPRWKVMSLGPCSASCGLGTARRSVACVQLDQGQDVEVDEAACAALVRPEASVPCLIADCTYRWHVGTWMECSVSCGDGIQRRRDTCLGPQAQAPVPADFCQHLPKPVTVRGCWAGPCVGQGTPSLVPHEEAAAPGRTTATPAGASLEWSQARGLLFSPAPQPRRLLPGPQENSVQSSACGRQHLEPTGTIDMRGPGQADCAVAIGRPLGEVVTLRVLESSLNCSAGDMLLLWGRLTWRKMCRKLLDMTFSSKTNTLVVRQRCGRPGGGVLLRYGSQLAPETFYRECDMQLFGPWGEIVSPSLSPATSNAGGCRLFINVAPHARIAIHALATNMGAGTEGANASYILIRDTHSLRTTAFHGQQVLYWESESSQAEMEFSEGFLKAQASLRGQYWTLQSWVPEMQDPQSWKGKEGT
- Km (FRETS-rVWF71): Km of 1.8 µM
- kcat (FRETS-rVWF71): kcat of 6.8 min^-1 at 30 °C

The remaining lines, values ahead:

- IC50 of inhibition of ADAMTS13 activity (FRETS-rVWF71 cleavage) (plasma ADAMTS13 (human)): 10 to 15 mg/mL
Molecule: Hemoglobin (from UniProt P69905 2-142; P68871 2-147)

- binding result (plasma ADAMTS13): binds
B3: FRETS-rVWF71 (peptide)
peptide: GQAPNLVYMVTGCPASDEIRRLPGDIQVVPIGVGPNANVQELERIGWPNAPILIQDFETLPREAPDLVLQR
modifications: Cys1610 modified with DyLight 633 (maleimide); N-terminal Gly modified with IRDye QC-1 (N-hydroxysuccinimidyl ester)
notes: Fluorogenic substrate; Recombinant peptide rVWF71 (extra N-terminal Gly = E1598G, N1610C, K1617R) labelled with fluorophore and quencher; also called VWF-rFRETS71; doubly-labeled substrate
